Assay results from the DeepSol protein solubility set.

assay: soluble on expression in E. coli; label from the status in PepcDB or PDB records

| Sequence | soluble on expression in E. coli |
| --- | --- |
| MASWSHPQFEKGALEDPRSLYDLPPYGDATLLYFSDLHGQAFPHYFMEPPNLIAPKPLMGRPGYLTGEAILRYYGVERGTPLAYLLSYVDFVELARTFGPIGGMGALTALIRDQKARVEAEGGKALVLDGGDTWTNSGLSLLTRGEAVVRWQNLVGVDHMVSHWEWTLGRERVEELLGLFRGEFLSYNIVDDLFGDPLFPAYRIHRVGPYALAVVGASYPYVKVSHPESFTEGLSFALDERRLQEAVDKARAEGANAVVLLSHNGMQLDAALAERIRGIDLILSGHTHDLTPRPWRVGKTWIVAGSAAGKALMRVDLKLWKGGIANLRVRVLPVLAEHLPKAEDVEAFLKAQLAPHQDHLFTPLAVSETLLYKRDTLYSTWDQLVGEAVKAIYPEVEVVFSPAVRWGTTILPGQAITWDHLYAYTGFTYPELYLFYLRGAQIKAVLEDIASNVFTSDPFYQQGGDVSRVFGLRYVLDPDAPTGERVREVEVGGRPLDPNRRYLAAAYGGRLQRVGEAKPGYEPRPIYEVLAEYLRSVGRVRVRPEPNVKVIGRNYRLPEVTG | soluble |
| MASYPCHQHASAFDQAARSRGHNNRRTALRPRRQQEATEVRPEQKMPTLLRVYIDGPHGMGKTTTTQLLVALGSRDDIVYVPEPMTYWRVLGASETIANIYTTQHRLDQGEISAGDAAVVMTSAQITMGMPYAVTDAVLAPHIGGEAGSSHAPPPALTLIFDRHPIAALLCYPAARYLMGSMTPQAVLAFVALIPPTLPGTNIVLGALPEDRHIDRLAKRQRPGERLDLAMLAAIRRVYGLLANTVRYLQCGGSWREDWGQLSGTAVPPQGAEPQSNAGPRPHIGDTLFTLFRAPELLAPNGDLYNVFAWALDVLAKRLRSMHVFILDYDQSPAGCRDALLQLTSGMVQTHVTTPGSIPTICDLARTFAREMGEAN | soluble |
| MATFNSYTVDEIREIVDPDHPETLLEQAKGWAEMADLLSEYGVLLEQRLELVEDSWTGDAARLYFDEVKRMQEYIEESAERATTNAGLWFLIGTLAGIAKHDVSYIHKLWKDLDNVTDAVGLGFILEAIGVDKAVEDFKRMPYDVASRQIMEATATAAEESYSQMRDFEEFKPPPDVDGSGPTLQSVSAVAPPGGAVSLPSTTIVSNAAMPPLGPVAMRPVVPGVIGSRPGMTSMPRPMMGPGHTVRPVIGQRTGESQQTKTPGRLIGRYGVVSATPDVDMRDPKASRIHYGGDDVNRGVIKNNDPQRAAEEARFKLEEEVLRLRERAFAHRADDLTPAHTQHVLPGIVGDDSGWDRKTHDPGPVAFEMRRRPDRDDDAWTVI | not soluble |
| MATIHVDGKEYEVNGADNLLEACLSLGLDIPYFCWHPALGSVGACRQCAVKQYQNAEDTRGRLVMSCMTPASDGTFISIDDEEAKQFRESVVEWLMTNHPHDCPVCEEGGNCHLQDMTVMTGHSFRRYRFTKRTHRNQDLGPFISHEMNRCIACYRCVRYYKDYADGTDLGVYGAHDNVYFGRPEDGTLESEFSGNLVEICPTGVFTDKTHSERYNRKWDMQFAPSICQQCSIGCNISPGERYGELRRIENRYNGTVNHYFLCDRGRFGYGYVNLKDRPRQPVQRRGDDFITLNAEQAMQGAADILRQSKKVIGIGSPRASVESNFALRELVGEENFYTGIAHGEQERLQLALKVLREGGIYTPALREIESYDAVLVLGEDVTQTGARVALAVRQAVKGKAREMAAAQKVADWQIAAILNIGQRAKHPLFVTNVDDTRLDDIAAWTYRAPVEDQARLGFAIAHALDNSAPAVDGIEPELQNKIDVIVQALAGAKKPLIISGTNAGSIEVIQAAANVAKALKGRGADVGITMIARSVNSMGLGIMGGGSLEEALTELETGRADAVVVLENDLHRYASATRVNAALAKAPLVMVVDHQRTAIMENAHLVLSSASFAESDGTVINNEGRAQRFFQVYDPAYYDSKTVMLESWRWLHSLHSTLLSREVDWTQLDHVIDAVVAKIPELAGIKDAAPDATFRIRGQKLAREPHRYSGRTAMRANISVHEPRQPQDIDTMFTFSMEGNNQPTAHRSQVPFAWAPGWNSPQAWNKFQDEVGGKLRFGDPGVRLFETSENGLDYFTSVPARFQPQDGKWRIAPYYHLFGSDELSQRAPVFQSRMPQPYIKLNPADAAKLGVNAGTRVSFSYDGNTVTLPVEIAEGLTAGQVGLPMGMSGIAPVLAGAHLEDLKEAQQ | not soluble |
| MATIPSVVREITLVGEQIFDHTQVVRAEIDRFVERFERNERHREFDGILRASHALVESSETPVEGLFDMGKMEHMTQCVDDITKKLQTLVEPKYQKEHDVYLEKVKEDQKKYVDVCREQAMNKMRSMTAHR | not soluble |
| MATKEKHVRKPDWVKIKLNTNENYIGLKKLMRENRLHTVCEEAKCPNIHECWAVRRTATFMILGSVCTRACRFCAVKTGLPTELDWQEPERVAESVRIMNLKHVVVTAVARDDLKDGGAAVFAETVRAIRRKNPFTTIEVLPSDMGGVYENLKILMDARPDILNHNIETVRRLTPRVRARATYERSLEFLRRAKELQPDIPTKSSIMVGLGETKEEIIEAMDDLRANHVDILTIGQYLQPTKKHLKVVKYYHPDEFQELKEIALSKGFSHCEAGPLVRSSYHADEQVSEAAKARQLKA | not soluble |
| MATKRDYYEILGLSKDSSVEDIKKTYRKLALQYHPDRNKEPGAEEKFKEISEAYAVLSDAEKRAQYDRFGHAGIDNQYSAEDIFRGADFGGFGDIFEMFFGGGRRGGPMGPRRGSDLQYDLYVTFEEAAFGVRKDIDIPRTERCSTCSGTGAKPGTSPKRCPNCGGTGQVRTTRSTLGMQFVSTTTCSACHGRGQVVESPCPTCSGAGRVRSRRKMSVNVPAGADSGMTLRLSGEGDAGEPGAPSGDLYIIVHVMEHKYFKRVDYDVISELPISFTQAALGADIMVDTLYGKVKMNIPSGTQTHSVFRLKDKGIQRLQGHGKGDQLVRVIIRTPTKLTQEQKDLLHQFEYLSNGKKPEAEERSRSDKQKSEKPRKSKGLFEKVKDAFES | not soluble |
| MATQHPIGKKTACVVGGTGFVASLLVKLLLQKGYAVNTTVRDPDNQKKVSHLLELQELGDLKIFRADLTDELSFEAPIAGCDFVFHVATPVHFASEDPENDMIKPAIQGVVNVMKACTRAKSVKRVILTSSAAAVTINQLDGTGLVVDEKNWTDIEFLTSAKPPTWGYPASKTLAEKAAWKFAEENNIDLITVIPTLMAGSSLTSDVPSSIGLAMSLITGNEFLINGMKGMQMLSGSVSIAHVEDVCRAHIFVAEKESASGRYICCAANTSVPELAKFLSKRYPQYKVPTDFGDFPPKSKLIISSEKLVKEGFSFKYGIEEIYDESVEYFKAKGLLQN | soluble |
| MATQTSKNPESVHDFTVKDAKENDVDLSIFKGKVLLIVNVASKCGMTNSNYAEMNQLYEKYKDQGLEILAFPCNQFGEEEPGTNDQITDFVCTRFKSEFPIFDKIDVNGENASPLYRFLKLGKWGIFGDDIQWNFAKFLVNKDGQVVDRYYPTTSPLSLERDIKQLLEIS | soluble |
| MATSRMVQARVPEEIQNVASQVIQASGLTVSDVVRVLMTRIAQDKAIPSVLFQPNAETIAAFAEVDEGNLKKFHSVDELFDDLYADD | not soluble |
| MATSSHLNWLIIRNNNAFLLKKRDVKKPFSTEPNNLASVSSYRYSGIVHKKTLGVVPAADKKGFTAVLKKGKYAQRPAKNTVRVDFKAGPRRSLKKLKNLLIGSKYRKDLTQAALRRASAVLRSQKPAPVKGKKAEFAKGKKPELEHHHHHH | not soluble |
| MATVDPIRYPIGTFQAPQQFEAGEVQEWIAAIRGLPNDLRTAVSGLNDEQLNTPYRDGGWTVAQVVHHLADASMNAFLRTKWGVTEDGPTVKPFAESEWAKTADACSLPIEPSLLLLDGLHARWAALLESMTEADFHRTVRPEGAAGEMPLYVLTALYAWHGKHHTAQVASLRKRKGW | not soluble |
| MAVDAVGRQKTIQEIIDSTTNKSTQRNTGELGKDEFLNLLITQLQYQDPLNPVDDKEFISQMAQFSALEQMQNLNKSFSATKAFGMIGKYITGTTSNGSDSGAGFVEGIVRSVKMENGKILLEVNGLDVPVDNVLSVSEESNYYYKYNSSNISQYTGIIGYEVSGSVYDPSTGDIVGVSGIVREIQKGIYEDYAVMDGVEVIISGIDTEFNSADPNFRKDYLTENVGQGVSLIITDAYGYGFKVPVTGVLKDFKIAPNGKIIGILDGVYVPVDSISNIKKPSANTGAADGTNENPQVEQSQTEESQVEEPQVGEPRDEESDSV | soluble |
| MAVPQLYYFNLRGFGEYIRLLFLDNGIQFEDIRFDYEGKEWQEFKKGMLLGQLPCLKVDRQEIVQTGAIMRHLGRVHEKNLARNFNFSKKYLMGKLTFLEKCGLNGSNEQEATFLDMFFEGVRDVRWKYVRSSRTLKSFWERMWKRPNLNAYLEKRKADKVRINGSDKGMN | not soluble |
| MAVQKNVIKGILAGTFALMLSGCVTVPDAIKGSSPTPQQDLVRVMSAPQLYVGQEARFGGKVVAVQNQQGKTRLEIATVPLDSGARPTLGEPSRGRIYADVNGFLDPVDFRGQLVTVVGPITGAVDGKIGNTPYKFMVMQATGYKRWHLTQQVIMPPQPIDPWFYGGRGWPYGHGGWGWYNPGPARVQTVVTE | not soluble |
| MAVSNIWQSYSSSNLHWIYPLYTNNCSQNVKSSFTAEILLKRRCNDIQDILNDRMIELLLQGACDPNKQQNYLQGMSPSRKKKTHVKKFLKKQKKSRKPITLEHGCLSGPVTLRFGNFAGIRDLRGTRCPLHGIKHGVHPKPGERCACQQATLFPSPLARFSCDQSAVLGCAASSTRVYDSIADEFSSLYF | not soluble |
| MAWDLKVKMLGGNDFLVSVTNSMTVSELKKQIAQKIGVPAFQQRLAHQTAVLQDGLTLSSLGLGPSSTVMLVVQNCSEPLSILVRNERGHSNIYEVFLTQTVDTLKKKVSQREQVHEDQFWLSFEGRPMEDKELLGEYGLKPQCTVIKHLRLRGGGGDQCA | not soluble |
| MAYEDLREFIGRLEDKGELARVKHEVSPILEMSEVADRTVKAGGKALLFERPKGYDIPVFMNAFGTERRMKLALEVERLEEIGERLLSALEFRPSSFMDALKGVGMLKDFMSFIPKKTGKAPCKEVVAESLDKFPILKCWPKDAGRFITFPVVITKDPETGEMNAGMYRMQVFDGKTTGMHWQIHKHGAEHFRKMAEKGGGKIEVAVAIGVDPATLYAATAPLPSGISEFMFAGFIRKERLKVTECETVDLLVPANAEIILEGYVRVDEMRVEGPFGDHTGYYTPPEPYPVFHITHITHRENPIYHATVVGKPPMEDAWLGKATERIFLPILRMMHPEIVDINLPVEGAFHNLAIVSIKKRYPGQAKKVMYAIWGTGMLSLTKIVVVVDDDVNVHDMREVVWAVTSRFDPARDVVILPPSPTDSLDHSAYIPNLAGKLGIDATKKWRDEGYEREWPDVVEMDAETKRKVDAIWNEIRNMVLAAALEHHHHHH | not soluble |
| MAYEISKKVLHIVGKTNATYKLIEEGDKILLGLSGGKDSIMLACILARMQKHAPFKFDFKAVTVHYGLGEDLKWLSDLCQEQGIEHEIIYTQIAATINEKRREKSSFCSFCSRLRRGTLYSKALEEGYNKVAIAHHLDDAVESFFMNFTYNGSLRSMPPIYRAENGLLVIRPLIKVREASSIHFVTSQNIPVAPDCNCPAKQPTSDKPPIARLATKNFLKEMQNLHPRFFDSLENAFNNVQANSFSDAKYLDALEHHHHHH | soluble |
| MAYLVAVTACVSGVAHTYMAAERLEKLCLLEKWGVSIETQGALGTENRLADEDIRRADVALLITDIELAGAERFEHCRYVQCSIYAFLREPQRVMSAVRKVLSAPQQTHLILE | soluble |
| MAYPVSPIAGRRSNWRSFAASLNLEDGPASSDSTSSPSEQTSDGGEVYGDPSENLNSRKLKSDELKSLLADSERSKLLKKLSEANQYNRFLKRQLQMKDNDVVKFKSELAVMELELQALVALAEEIANFDVPSGSRKINGKYIQSHLLTRLEAVHDKVMEQIKDVDSLKHQEISVFWVGIAENVQIMGSFDGWSQGEAMSMEYSGYQARFSATLNLRPGRYEIKFLVDGEWRLSLEYPIDGEGSMQNNILVVN | not soluble |
